Experiment: label from the status in PepcDB records
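Note: failed if final PepcDB status was selected cloned or expressed and not failed if soluble or beyond.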

Sequence	protein production
MLRASLLCSSTSITFTPIQLFNPNSSHRFPRFELSRPVSALSRTKCHLSLLRARGKSSFLTRSTATDEAVETSSNSGLDLVEVGFLSGVHGLQGEICIKPNTDFPDLRFSKPGRRWLKQQLLGQDKIDEVELVEGRPHPAQKSWILKFRGLDDVDQVRQLVGATLLAEDDDRPELDEGEFYSRDLVGMRVLLKETGQLVGTVANIFDNGGNDLLHVLLDSSMEVCNGNAKTNQLVWIPFVDAIVPDVDLERKEMYITPPKGLLEVNMRADDRSKKERRQLEWKERKKQQKRLIAAKKKLCEMEQKHVFDGLRFGEKSQRNLLADHILNVNSTLLQKALQSIDTSSKRWNVTEEINALRARVSECNLSVSRECLSFDASKENMGDNFSFLQQGQNLFSEGKVSICLVLNDHENEEPEGENGVVSYLHALLDEEQRFIKEEDRACVPLVIVSPEHTIEALQKLFQDNDHFGFESEKIWILKEETLPVVCSSPEEPKKHKILMKSPWEILESPVGSGGVLSILASHGTTDSLSTLGINYLQVHSIETKPQPSQHYINPMLVGFVSARGAEIGIQVTEESELKNLEMTFSMKFLKRLKGKIEFEAVMKMNSHVQNVEKEWVESVPSEPNSFEFRSDIYRVLSECSSSAKICLMNITV	failed
MGNAGESKKSNSDSAKGEEKASGSLTISGSSAMQPLVLAAAEKFMEENPDADIQVQAGGSGTGLSQVSEGAVQIGNSDVFAEEKEGIDAKALVDHQVAVVGMAAAVNPDAGVKDISKDELKKIFTGKIKNWKELGGKDQKITLVNRPDSSGTRATFVKYALDGAEPAEGITEDSSNTVKKIIADTPGAIGYLAFSYLTDDKVTALSIDGVKPEAKNVATGEYPIWAYQHSYTKGEATGLAKEFLDYLKSEDIQKSIVTDQGYIPVTDMKVTRDANGKQSLEHHHHHH	failed
MEGGYKLNITKAIVVAIYIIVGAALGVIIIPEVVTDLGIHHHAVITNYYVDGFIGIIIFFIIFGLFINKVTYAFKQFEQLIMRRSAVEILFATIGLIIGLFISVMVSFILEMIGNSILNHFVPMIITIILCYLGFQFGLKKRDEMLMFLPENMARSMSNNIRRATPKIVDTSAIIDGRILDIIRCGFIDGDILIPQGVINELQVIADAKDSVKREKGQRGLDILNQLYDLDYPTRVIHPTQSHSDIDTLLIKLAQQYHAHVITTDFNLNKVCHVQGITALNVNDLSEAIKPNVHQGDQLSILLTKIGKEPGQGVGYLDDGTMVVVDNAKSYIGQQVNLEVVSLLQTSSGRIVFAKFVD	failed
MIQAQTAAPPHAKVTAILLFTTLMWGGSFLFNKIGMREVPPVHFFFFRFALAALLMGGVCLPRLARLNRHIAVRGAVVGLALAAVNLTFVLGVSGTTISRAGYLNNLFVLFIPLLTFALWRERVDRVTFGGIALAVVGLWALASGGAEGFNQGDLLSTVCALFIAIHIIAVSRVLRDEDVYLVTFVQFVTVAAVGLVLCLVLPWPEFTIGRAGAWSLAYCALFPTVICFTLQNAYQRFTTPTRAGLIYTLDPVWSMLFGVFILGERLTPRELAGCVLILMAVAGPLLARLYLEQRHRRLYRLDGAEGT	failed
MKTITQELKQYMTHLFQLSNNEAWECEALEEAAENILPERFINDSPLVQLTLETYTYYNDELHELSIYPFLMYANNQLISIGYLDHFDMDFLYLTDTQNIIIDERHLLKQGGQDHELEHHHHHH	not failed
MKERILQEIKTRVNRKSWELWFSSFDVKSIEGNKVVFSVGNLFIKEWLEKKYYSVLSKAVKVVLGNDATFEITYEAFEPHSSYSEPLVKKRAVLLTPLNPDYTFENFVVGPGNSFAYHAALEVAKHPGRYNPLFIYGGVGLGKTHLLQSIGNYVVQNEPDLRVMYITSEKFLNDLVDSMKEGKLNEFREKYRKKVDILLIDDVQFLIGKTGVQTELFHTFNELHDSGKQIVICSDREPQKLSEFQDRLVSRFQMGLVAKLEPPDEETRKSIARKMLEIEHGELPEEVLNFVAENVDDNLRRLRGAIIKLLVYKETTGKEVDLKEAILLLKDFIKPNRVKAMDPIDELIEIVAKVTGVPREEILSNSRNVKALTARRIGMYVAKNYLKSSLRTIAEKFNRSHPVVVDSVKKVKDSLLKGNKQLKALIDEVIGEISRRALSGLEHHHHHH	not failed
LNIAQKGREGRKIGTAFVMGDVEEVMSRSSQLVINPYHGHKEADRDIKNPENWESVMEFAQIDGVFVLDENGIIIACGRYIEASAKDLVSKIKRGLGGRHIACASITKETKAIAVVVSESGGDITVYKDGVEVMHIPSLLF	failed
MRKARGKAAKGGRAVTGDPIGDAAVLSALFANSPQGLFVFDSEQKVTRYNPAGRGVRGLPEEDVVGQGIADFVPGFEAVELQGLIDEVLATGEALRGRLVRGRAPSGPHRTLAVEVSLFPLRDLGDGKPGLVGVVEDVTE	failed
MAFLKVVPLEKALEVVQSFKISPGIEEVPIEKGLGRIAAEDIYSPIDVPPFDRATVDGYAVRAEDTFMASEASPVRLKVIGSVHAGEEPKFKLGKGEAAYISTGAMLPGNADAVIQFEDVERVNGEILIYKPAYPGLGVMKKGIDIEKGRLLVKKGERLGFKQTALLSAVGINKVKVFRKPKVAVISTGNEIVPPGNELKPGQIYDINGRALCDAINELGGEGIFMGVARDDKESLKALIEKAVNVGDVVVISGGASGGTKDLTASVIEELGEVKVHGIAIQPGKPTIIGVIKGKPVFGLPGYPTSCLTNFTLLVVPLLLRALGREGKIGKKVARLKHKVFSVKGRRQFLPVKLEGDLAVPILKGSGAVTSFIDADGFVEIPETVESLDEGEEVEVTLFKGW	not failed
MVKTMSEVNFNSKAFTYADNALVQKSASEVLLNLLSIQPEEDVLDIGCGPGHITKKIAKITNGSVQGIDVSQGMIEQAISSNKDLPNLKYSVMDAENLELNTKFDVIVCNSCFQWFQKPDQVLMRCFNVLKEGGRIGIQAPATQSYCPNFISAIEKIRMHPYTREVFNHFKSPWFFFDSKDEYEQLFRNHGFDIIYSELREESNLFSVEQAYKIYQSGAENGYLNQSYYTVTLTDNYISTFRELVKEALQEQADNSGMINLKFERIYLVAKKQ	failed
MLIPQQKELNSISLLAEVSRTVTNENDISKVLRIVLFIMSEHLDMLRGMITILNRETGEITTNESFGLTEEEMERGRYRIGEGIIGQVVKTGKPFIVPNIGDEPLFLDRTRSRQKTKKENLCFICIPIRSGAEIIGTLSADRQLEPSLLKESGKRMKAEDERMDLLQHYVDLLSIIASMISQAVRLKQIAHEATAGIAVVEHKPQQEK	failed
MANKKIDHREEAIELLKQDAKRILQLIKVQMDNLTLPQCPAYEEVLDTQMYGLSREINFATRLGLIEPEEGKKLISTLEKELSALHELSMSKK	not failed
PLGLAPTASTTATLAMGDALAVALLIERGFRPEDFALFHPGGSLGKKLLLTVGDLMHSGDAVPLVGSATPIRDALFVITAKGLGITGVCAEDGALVGVVTDGDLRRSLGKGVDILNQPAGEIMTRNPKRINRSELAAKALQVMESHSITSLFVFDDTADNRPVGVIHLHDLLRA	not failed
MKKAIQFGAGNIGRGFIGGLLVKSGYHVVFADVNEYILNSINKDKKYTIHIRDVECIDEVIDNISAVSSIKEEIIDEIVQAEIITTAVGPLVLTKIASTIAKGIKARKEKGLTSNLNIIACENAIYASSSLKEEVLKYLNKEEVEYLEMYVGFPNCSVDRIVPPGKNENPLDVTVENFYEWNVEKQGFKGEIPTIVGMNLADNLMAYIERKLFTLNTGHAITAYIGYLKGYKTIEESIKDKFICDIVKSAMVESGEGLIKKYNFDSEVHYKYIDKILNRFKNPYLNDDVLRVGREPLRKLSDKDRLIKPLMTAKSYGLSVDNLILGIGAALHYNNSEDTQSVELQELIKSIGVKKAVAKIANISNDEELLNNIEKSYIFMKNL	not failed
MRGDKFTLRDSLCLKVDGGRGVCLKGDGGRGVCLKGDGGRGVCLKGDSCDFNHSYTLPRREEVEKHQIELFKEEILSYMRKWISPHEFLQKVLDFNLKSLLVDLAATFNVRYPERQRLLV	failed
MRGKHIFIITALISILMLAACGQKNSSATVATATDSTITKSDFEKQLKDRYGKDMLYEMIAQDVITKKYKVSDDDVDKEVQKAKSQYGDQFKNVLKNNGLKDEADFKNQIKFKLSMNKAIKQSVTEKDVKDHYKPEIKASHILVSDENEAKEIKKKLDTGASFEELAKQESQDLLSKEKGGDLGYFHSGAMTPEFETAAYKLKIGQISDPVQSPNGYHIIKLTGKKDLKPYDEVKNSIRKNLEEERTADPIFGKKLLQSELKKANIKINDSELEDTFTIVSPQGN	failed
CASRQEHSLRIIHTTDLHGNVFPTDFKALRPTSGGMSRLASFLKAARSDRSELLLFDGGDVLQGDPTAYYYNYMDTTGTHLFSRAMNYLRYDAAIPGNHDIETGHAVYDKWVAGCDFPFLAANAIDTETGKPYWAPYKVFDRNGLRVALLGFITPAIPEWLPQSLWTGMRFDDIIESAKYWVPFVIQKEKPDFVVCVLHSGRENDNSNYLEDAGMTLAREVAGIDVLLLGHDHQEYSRRVKGAEADSVLVLNPANHLDKVSDVRLSLARKGDKVLHKRVEGGLTDISRLTPDSAFMAHFSSDEAAVRRFVNE	failed
MSASVVCVVGNPNCGKTTLFNALTGGRQSVGNWPGVTVEKKVGAYRHGGEAVTIVDLPGVYSLTPTSSSSEDERVARDYILSGEAGLVLNIVDASNLERNLYLTAQLLEMRVPMVVIVNMMDIAASRHLDIDIDALSKSLDCKVVPMVASRRRGLDDLREVIAQSMGRTTPPAASAPYPPAVSEAVGRIAATLPADSRADRRWTALQLLEGDSTLLRDLPPATALALESDLKQAAQSGTEDFDILIADARYGFVGAIALGAVIRKGQMSRTLTDRIDKVVLHRVLGIPIFLAMMYLMFVFTINVGGAFIDFFDQFAGTLFVDGFGHLLGGAGAPDWLTALLAKGVGGGVQTVATFIPVIGFLYLFLSVLEDSGYMARAAFVMDRFMRGIGLPGKAFVPLIVGFGCNVPAVMATRTMDSRRDRLITVMMAPFMSCGARLPVYVLFAAAFFPSGGQNLVFALYLIGILVAIATGLLLKTTALRGEASPFVMEMPPYHLPTVAGILLRTWDRLKSFILRAGKLVVAVVVVLSFLNSWGTDGSFGNEDTDKSVLAAIGKAIVPVFAPMGISEENWPATVGVFTGIFAKEAVVGTLDALYGTIAEGNAAAAQAEADPEAAATEEPEAFDLWGGLAGAFATIPANLSNVAGALADPLGIEVGDLSDRSAVAADQEISTSSIDAIALLFDGAIGAFAYLLMVLLYMPCVAAVSAIWREVGTRWTLFAAAWTTGMGYGAAVLTYQIGTFSRHPVSSAVDIAVVLAVLAAAIALLRLAGRGSAEAGPISAGQTAS	failed
MKVLAVAYDPRDFGELATGVRDSLGDAELVFLAVHKAAEEPGKASGYSEKVFVSRTSSPESIALLLEKLISEEKPDIIVGEAYKNLRDALSRVAGKLDLPMATDVSSFSVENGKVKFRKGFLSEKAVMEAEIPKPAVILFLTRFTKPKEISPESQARIVELEPPQGETKVVETRPKEMGGANLEEAEIIVGVGRGFKSKEDLKLAFELAELLNAQIGCTRPIAADLKWLSEDHWIGISGKRVAPKLYLAIGISGSPQHMSGVQNAKIIVAVNKDKNAPIFKQADYGVVADLYQFIPVLIKKLRERKSN	failed
MKKQEKGNEVVTFEENPSTYVHHHTKKASMVLSEQEIEVILQSNKETYNEKLEKNTKENAEKVGIEEGNGSSSKITPCIFYTSDEKARLRWSSDLHDCFVNAVEKLGGPNKATPKSVKEAMEVEGIALHHVKSHLQKFRLGKCNIRGGTNQYVRQSQSMPHKSQQQLQLNNDCVNHDSYCNATFLSVTVPPTIDSLHQDTLNNTILFPTTLQAIPTSVSHNTYMSSYPSYNTVEVVKAQLNALQDSSTSQTQETFSRETNLSSIVTRDEADPVDKYIDWNKVGETDIEHDSVEVLEALGLK	failed
